Where “and” joins values, the source holds several entries; their conditions need not be identical. Identical values can stand only once. Blank lines part the entries; values can stand above or below the molecule they belong to.
What was measured:
[1] = molecular target: T1, SA2 (STAG2), full length (human, UniProt Q8N3U4 1-1231); assay: fluorescence anisotropy; settings: Anisotropy: 20 mM Hepes pH 7.5, 0.1 mM MgCl2, 0.5 mM DTT, 100 mM KCl, 1 nM DNA; AFM: 20 mM Hepes pH 7.5, 100 mM KCl, 0.1 mM MgCl2, room temperature, 20 min
T1 sequence: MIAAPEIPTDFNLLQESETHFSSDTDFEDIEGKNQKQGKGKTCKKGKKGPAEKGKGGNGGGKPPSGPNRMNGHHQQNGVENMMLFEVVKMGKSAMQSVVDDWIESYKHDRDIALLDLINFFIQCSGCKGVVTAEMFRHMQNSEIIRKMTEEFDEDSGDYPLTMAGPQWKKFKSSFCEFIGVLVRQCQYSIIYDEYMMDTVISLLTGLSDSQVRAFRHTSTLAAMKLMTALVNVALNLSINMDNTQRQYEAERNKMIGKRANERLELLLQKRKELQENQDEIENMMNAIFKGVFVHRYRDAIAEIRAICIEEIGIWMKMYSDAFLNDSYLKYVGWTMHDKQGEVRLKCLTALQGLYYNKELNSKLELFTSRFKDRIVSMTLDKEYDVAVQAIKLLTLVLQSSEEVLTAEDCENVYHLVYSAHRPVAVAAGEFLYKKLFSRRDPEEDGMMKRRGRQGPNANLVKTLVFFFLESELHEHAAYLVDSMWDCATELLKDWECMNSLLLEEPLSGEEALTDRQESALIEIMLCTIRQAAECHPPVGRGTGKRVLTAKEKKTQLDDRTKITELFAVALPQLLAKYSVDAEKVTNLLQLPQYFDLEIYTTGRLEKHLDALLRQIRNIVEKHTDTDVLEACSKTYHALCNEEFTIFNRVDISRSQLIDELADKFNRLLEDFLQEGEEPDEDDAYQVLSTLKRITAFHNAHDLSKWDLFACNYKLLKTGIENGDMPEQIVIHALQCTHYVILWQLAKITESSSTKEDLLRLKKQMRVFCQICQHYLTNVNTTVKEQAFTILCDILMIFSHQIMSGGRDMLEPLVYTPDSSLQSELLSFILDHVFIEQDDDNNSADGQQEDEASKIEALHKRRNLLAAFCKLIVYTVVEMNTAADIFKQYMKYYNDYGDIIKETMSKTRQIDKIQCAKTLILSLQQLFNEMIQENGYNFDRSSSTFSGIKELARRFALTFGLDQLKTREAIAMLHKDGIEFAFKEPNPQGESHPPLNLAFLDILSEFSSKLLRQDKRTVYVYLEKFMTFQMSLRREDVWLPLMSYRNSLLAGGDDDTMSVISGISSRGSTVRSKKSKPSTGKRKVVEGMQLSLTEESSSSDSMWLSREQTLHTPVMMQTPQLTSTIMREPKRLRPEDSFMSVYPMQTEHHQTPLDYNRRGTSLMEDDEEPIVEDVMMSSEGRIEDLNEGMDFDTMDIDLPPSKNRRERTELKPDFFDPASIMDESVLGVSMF

[2] = molecular target: His-tagged full-length SA2 (amino acids 1-1231, 141 kDa) (human) (UniProt Q8N3U4); assay: AFM volume analysis; SA2 incubated with linear DNA substrates in 20 mM Hepes (pH 7.5), 100 mM KCl, 0.1 mM MgCl2 at room temperature for 20 min, deposited on mica; number of SA2 molecules in DNA-bound complexes from the AFM volume calibration curve
[3] = molecular target: His-tagged full-length SA2 (amino acids 1-1231, 141 kDa) (human) (UniProt Q8N3U4); assay: single-molecule fluorescence imaging on DNA tightropes; QD-labeled His-SA2 on DNA tightropes (centromeric, telomeric, gapped) between silica beads, oblique angle TIRF, no buffer flow; encounters of SA2-QDs on DNA followed in kymographs
[4] = molecular target: T1, SA2 (STAG2), full length; assay: AFM; settings: Anisotropy: 20 mM Hepes pH 7.5, 0.1 mM MgCl2, 0.5 mM DTT, 100 mM KCl, 1 nM DNA, AFM: 20 mM Hepes pH 7.5, 100 mM KCl, 0.1 mM MgCl2, room temperature, 20 min
[5] = molecular target: T2, SA2 1-1051 (human, UniProt Q8N3U4 1-1051); assay: AFM; settings: Anisotropy: 20 mM Hepes pH 7.5, 0.1 mM MgCl2, 0.5 mM DTT, 100 mM KCl, 1 nM DNA, AFM: 20 mM Hepes pH 7.5, 100 mM KCl, 0.1 mM MgCl2, room temperature, 20 min
T2 sequence: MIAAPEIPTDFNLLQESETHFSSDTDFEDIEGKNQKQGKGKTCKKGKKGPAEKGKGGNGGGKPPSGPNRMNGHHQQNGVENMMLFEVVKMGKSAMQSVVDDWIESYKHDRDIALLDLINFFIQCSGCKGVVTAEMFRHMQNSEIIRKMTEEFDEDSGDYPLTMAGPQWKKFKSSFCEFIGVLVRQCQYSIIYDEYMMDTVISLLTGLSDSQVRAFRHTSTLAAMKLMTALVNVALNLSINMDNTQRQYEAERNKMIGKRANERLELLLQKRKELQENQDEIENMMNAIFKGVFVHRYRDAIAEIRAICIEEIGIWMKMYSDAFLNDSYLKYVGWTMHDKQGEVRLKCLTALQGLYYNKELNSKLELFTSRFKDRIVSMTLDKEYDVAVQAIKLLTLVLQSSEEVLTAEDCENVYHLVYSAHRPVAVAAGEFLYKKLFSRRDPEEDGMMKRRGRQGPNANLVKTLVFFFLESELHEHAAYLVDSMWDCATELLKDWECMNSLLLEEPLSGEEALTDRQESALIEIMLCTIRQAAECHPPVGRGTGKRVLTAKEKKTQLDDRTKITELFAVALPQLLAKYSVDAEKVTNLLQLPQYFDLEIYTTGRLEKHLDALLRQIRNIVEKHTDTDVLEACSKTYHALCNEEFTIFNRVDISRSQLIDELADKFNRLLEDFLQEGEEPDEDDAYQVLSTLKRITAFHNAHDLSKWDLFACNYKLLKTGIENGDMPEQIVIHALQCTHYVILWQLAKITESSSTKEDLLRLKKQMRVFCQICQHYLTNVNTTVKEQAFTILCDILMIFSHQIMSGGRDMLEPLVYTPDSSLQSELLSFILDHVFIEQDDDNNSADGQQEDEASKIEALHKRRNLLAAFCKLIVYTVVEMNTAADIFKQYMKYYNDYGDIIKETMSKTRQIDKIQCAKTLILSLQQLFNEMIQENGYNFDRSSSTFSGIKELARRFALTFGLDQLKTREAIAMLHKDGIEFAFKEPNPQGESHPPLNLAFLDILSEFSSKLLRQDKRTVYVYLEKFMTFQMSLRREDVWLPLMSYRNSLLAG

[6] = molecular target: T1, SA2 (STAG2), full length; assay: fluorescence anisotropy; uncertain: low saturation; Anisotropy: 20 mM Hepes pH 7.5, 0.1 mM MgCl2, 0.5 mM DTT, 100 mM KCl, 1 nM DNA; AFM: 20 mM Hepes pH 7.5, 100 mM KCl, 0.1 mM MgCl2, room temperature, 20 min; settings: protein: recombinant; tags: 6xHis; label: 5' Alexa 488
[7] = molecular target: T1, SA2 (STAG2), full length; assay: fluorescence anisotropy; Anisotropy: 20 mM Hepes pH 7.5, 0.1 mM MgCl2, 0.5 mM DTT, 100 mM KCl, 1 nM DNA; AFM: 20 mM Hepes pH 7.5, 100 mM KCl, 0.1 mM MgCl2, room temperature, 20 min; settings: protein: recombinant, tags: 6xHis
[8] = molecular target: T2, SA2 1-1051; assay: as above; settings: protein: recombinant; tags: 6xHis; label: Alexa 488; blunt
[9] = DNA ends vs internal, no centromere preference

Molecule: ds66 telomeric
- Kd [1]: 88 nM

- stoichiometry N (SA2 molecules) [2]: 5 and 4
- percent of SA2-SA2 encounters on DNA that formed complexes [3]: 8%
Molecule: His-tagged full-length SA2 (amino acids 1-1231, 141 kDa) (from UniProt Q8N3U4 1-1231) (natural protein)

Molecule: replication fork (anisotropy)
- Kd [1]: 133 nM

Molecule: Cen-mid DNA
- binding signal [4, 9]: 2130 KSP/KNSP

Molecule: linear flap DNA (AFM)
- binding signal ([4]; flap vs internal): 4260 KSP/KNSP

Molecule: circular replication fork template
- binding signal ([4]; 55.6% of bound SA2 at fork junction): 26 % DNA bound

Molecule: linear replication fork DNA (AFM)
- binding signal ([4]; replication fork vs internal): 3150 KSP/KNSP

Molecule: linear gapped DNA
- binding signal ([4]; ssDNA gap vs internal): 1990 KSP/KNSP
- binding signal ([5]; DNA ends vs internal, substrate for end value inferred): 1690 KSP/KNSP
- binding signal ([5]; ssDNA gap vs internal): 1810 KSP/KNSP

Molecule: Cen-end DNA
- binding signal [4, 9]: 2600 KSP/KNSP

Molecule: linear single-stranded fork DNA (AFM)
- binding signal ([4]; fork vs internal): 2950 KSP/KNSP

Molecule: TGTCGCATAGTGTAGTCGGTCTTGT (ssDNA) [ss25]
- Kd [6]: ~445 nM

B1: ds66 non-telomeric (Alexa ss66 + ss66-com) (dsDNA)
DNA 1: CTGGATCCGTACAGTGTAAGGGTGAGTGGTTGGGTGTGTGGGTGTTGATGTAGAACAAGAATTCGA
DNA 2: TCGAATTCTTGTTCTACATCAACACCCACACACCCAACCACTCACCCTTACACTGTACGGATCCAG
- Kd ([7]; label: Alexa 488, blunt): 76.2 ± 3.9 nM
- Kd [8]: 198 nM

Molecule: TGTCGCATAGTGTAG (ssDNA) [ss15]
- Kd [6]: ~1000 nM

Molecule: TGTCGCATAGTGTAGTCGGTCTTGTTCGGTCATAGCTCATCGTGG (ssDNA) [ss45 (oligo 1)]
- Kd ([7]; label: 5' Alexa 488): 118 ± 5.3 nM

B2: ds45 (oligo 1 + oligo 2) (dsDNA)
DNA 1: TGTCGCATAGTGTAGTCGGTCTTGTTCGGTCATAGCTCATCGTGG
DNA 2: CCACGATGAGCTATGACCGAACAAGACCGACTACACTATGCGACA
- Kd ([7]; label: 5' Alexa 488 on strand 1, blunt): 175 ± 12.9 nM
